The Human Domainome abundance scans (Beltran et al. 2025)
± gives the uncertainty stated by the source.

B1: Peripheral plasma membrane protein CASK, residues 488 to 569; numbered along this chain, O14936 (parent)
chain: VRLVQFQKNTDEPMGITLKMNELNHCIVARIMHGGMIHRQGTLHVGDEIREINGISVANQTVEQLQKMLREMRGSITFKIVP

Variants of: B1
Assay: abundance fitness (aPCA) (normalised: wild type 0, dead -1); higher = more abundant; growth selection in yeast, the domain comes from the species named
Details: Homo sapiens

Abundance fitness of substitutions, site by site:
G41: H -0.07 ± 0.043, L -0.424 ± 0.029, K -0.1 ± 0.032, Q -0.113 ± 0.034, E -0.1 ± 0.028, C -0.137 ± 0.031, A -0.083 ± 0.024, D -0.065 ± 0.033, R -0.127 ± 0.021, N -0.072 ± 0.039, W -0.829 ± 0.048, V -0.288 ± 0.025, P -0.541 ± 0.047, M -0.233 ± 0.036, T -0.033 ± 0.03, Y -0.639 ± 0.08, S -0.098 ± 0.025, I -0.55 ± 0.069
G34: T -0.126 ± 0.054, L -0.261 ± 0.042, N -0.016 ± 0.1, K -0.177 ± 0.064, A -0.247 ± 0.041, H -0.052 ± 0.085, R -0.194 ± 0.035, F -0.385 ± 0.096, Q -0.151 ± 0.057, C -0.252 ± 0.064, P -0.373 ± 0.06, V -0.447 ± 0.042, Y -0.489 ± 0.14, D -0.032 ± 0.051, I -0.478 ± 0.1, M -0.259 ± 0.057
R39: V -0.197 ± 0.022, F -0.34 ± 0.051, Y -0.35 ± 0.048, L -0.138 ± 0.026, C -0.156 ± 0.055, I -0.297 ± 0.04, D -0.096 ± 0.034, P -0.469 ± 0.04, A -0.035 ± 0.022, Q -0.024 ± 0.031, T -0.07 ± 0.03, H -0.118 ± 0.043, S -0.047 ± 0.026, N 0.04 ± 0.037, G -0.136 ± 0.019, M -0.135 ± 0.033, E -0.052 ± 0.026
G35: L -0.268 ± 0.027, T -0.013 ± 0.033, P -0.549 ± 0.048, M -0.128 ± 0.038, I -0.843 ± 0.17, F -0.243 ± 0.057, V -0.485 ± 0.031, A -0.098 ± 0.026, N -0.28 ± 0.068, D -0.236 ± 0.043, Y -0.134 ± 0.054, S 0.027 ± 0.026, H -0.068 ± 0.057, W -0.422 ± 0.035, C -0.066 ± 0.035, R -0.278 ± 0.024, E -0.187 ± 0.029
I49: T -0.576 ± 0.095, V 0.001 ± 0.035, M -0.264 ± 0.097, R -0.858 ± 0.073, K -0.823 ± 0.16, A -0.856 ± 0.089, L -0.089 ± 0.04, S -0.886 ± 0.12, D -0.24 ± 0.2, G -1.05 ± 0.11, E -0.992 ± 0.13, C -0.855 ± 0.17, N -0.804 ± 0.2, F -0.721 ± 0.17, W -1.04 ± 0.17, Y -0.998 ± 0.27, Q -1 ± 0.24, P -0.743 ± 0.15
I31: V -0.057 ± 0.03, L -0.058 ± 0.032, Q -1.04 ± 0.13, A -0.647 ± 0.059, D -0.61 ± 0.075, H -0.779 ± 0.27, K -0.93 ± 0.15, N -0.71 ± 0.14, S -0.859 ± 0.075, Y -0.579 ± 0.12, E -0.777 ± 0.078, W -0.847 ± 0.082, R -0.869 ± 0.052, G -1 ± 0.069, F -0.331 ± 0.13, P -0.791 ± 0.082
D47: N -0.497 ± 0.1, H -1.03 ± 0.27, V -0.859 ± 0.11, L -0.878 ± 0.13, R -0.939 ± 0.11, E -0.323 ± 0.061, K -1.04 ± 0.24, Y -0.832 ± 0.22, A -0.708 ± 0.085, I -0.694 ± 0.36, T -0.788 ± 0.15, C -0.552 ± 0.15, S -0.711 ± 0.077
M32: D 0.051 ± 0.055, P -0.109 ± 0.051, E 0.04 ± 0.037, R 0.003 ± 0.028, A 0.058 ± 0.035, Y -0.086 ± 0.072, W -0.045 ± 0.045, G -0.093 ± 0.028, Q 0.001 ± 0.045, N 0.062 ± 0.078, F 0.086 ± 0.26, K 0.042 ± 0.039, T 0.015 ± 0.044, V 0.027 ± 0.034, L -0.083 ± 0.038, I 0.175 ± 0.085
G46: I -1.01 ± 0.24, T -0.992 ± 0.2, E -0.293 ± 0.042, S -0.491 ± 0.041, L -0.638 ± 0.05, Q -0.61 ± 0.084, M -0.553 ± 0.076, K -0.706 ± 0.077, P -0.877 ± 0.13, F -0.75 ± 0.17, R -0.669 ± 0.041, H -0.471 ± 0.13, N -0.128 ± 0.072, V -1.04 ± 0.092, Y -1.02 ± 0.28, D -0.22 ± 0.04, W -0.951 ± 0.092, C -0.721 ± 0.081, A -0.624 ± 0.045
E48: C -0.017 ± 0.045, A -0.105 ± 0.033, F -0.362 ± 0.15, H -0.108 ± 0.071, Q -0.069 ± 0.051, R -0.037 ± 0.028, W -0.059 ± 0.036, S -0.071 ± 0.04, D -0.108 ± 0.049, L -0.161 ± 0.037, T -0.123 ± 0.053, V -0.06 ± 0.033, M -0.158 ± 0.049, I -0.073 ± 0.073, P -1.09 ± 0.24, K -0.19 ± 0.055, N -0.326 ± 0.082
